Measured values taken from patent US9260728B2, “Terpene synthases from Santalum” (UNIVERSITY OF BRITISH COLUMBIA, priority 2009, dated 2016).

What was measured:
Assay type in all cases: biochemical
[1] = GC-FID determination of reaction products of terpene synthases from FPP with magnesium or manganese
[2] = as above; remark: listed apart in the source
Description: Enzyme assays for all recombinant proteins were done in triplicate using the GC vial method described by O'Maille et al. (Anal. Biochem. 335:[…] (2004). For enzyme assays where only product identification was needed, 10 μg of protein was used in a final volume of 500 μL of reaction buffer (25 mM HEPES, 10% glycerol, 5 mM DTT and 10 mM of either Mg^2+ or Mn^2+. Substrates (FPP and GPP) were added to a final reaction concentration of 100 μM. Vials were overlaid with 500 μL of hexane to trap volatile products and incubated at 30° C. for 2 h. Mixtures were vortexed for 1 min to extract all volatiles and the vials were centrifuged to separate the organic layer.
Product mixtures were analysed by GC-MS in scan mode for product identification. A standard containing the three santalenes and α-trans-bergamotene was prepared by flash chromatography of 2 mL of neat S. album oil over silica and eluted in hexane. A final yield of 25 mg was resuspended in EtOAc and purity was confirmed by GC-FID with conditions described below. All mass spectra were compared to the NIST 2005 library and the literature. Retention indices were determined for all compounds using an n-alkane standard and compared to the literature (R. P. Adams, “Identification of essential oil components by gas chromatography/mass spectrometry,” Allured Publishing Corporation, Carol Stream, Ill. (1995)).
(§1) GC-FID was performed on a Shimadzu GC2010 with a 30 m 0.25 mm ID, 0.25 μm film DB-WAX column with He as the carrier gas. Splitless injection (2 μL) was used for all analyses. Conditions were as follows: injector 200° C., detector 250° C., column flow rate 1 mL/min. Oven program: 40° C. for 3 min, then 8° C./min to 180° C., held 5 min, then 10° C./min to 220° C., held 10 min. Needle height was adjusted to only draw from the upper organic layer of all sample vials. GC-MS was performed on a Shimadzu GC2010 with the same DB-WAX column and using He as the carrier gas. Conditions were as follows: injector 200° C., MS interface 240° C., ion source 200° C. Oven program: 40° C. for 3 min, then 8° C./min to 180° C., held 5 min, then 10° C./min to 220° C., held 10 min. Solvent cut time was set to 5 min. For product identification, total ion monitoring was used, scanning from m/z 45 to m/z 300. For kinetic assays, single ion monitoring of the sesquiterpene base ions m/z 91, 93 and 94 were used. Likewise monoterpene base ions (m/z 69, 71 and 93) were monitored. An internal standard (isobutyl benzene, 30 μM) was added to the hexane used to overlay each reaction. Detector response factors were calculated based on the santalene standard prepared earlier and used to determine the product concentrations for kinetic analysis.

[3] = SaSSy enzyme assay with GPP, GC-MS product analysis; settings: GPP as substrate, Mn^2+
Description: Enzyme assays for both recombinant isoenzyme proteins P143 and S143 were done in duplicate using GC vials as per O'Maille, P. E., et al. (“A single-vial analytical and quantitative gas chromatography-mass spectrometry assay for terpene synthases,” Anal. Biochem. 335:210-217 (2004)). […] 20 μL of substrates FPP and GPP (˜1 mg/mL) were added and the mixture gently shaken. Final enzyme concentration was 0.3 mg/mL. Vials were overlaid with 500 μL of pentane to trap volatile products and incubated at 30° C. for 2 h.
The product mixture of the SaSSy enzyme was analysed on an Agilent 6890 GC with a 5973 MSD using helium as carrier gas. Peak identification was done using an HP5-MS capillary column (30 m, 0.25 mm ID, […]). Injector temperature was 240° C., detector temperature was set at 250° C., injection volume was 1 μL and column flow rate was 1 mL/min. Oven temperature program was as follows: oven program was held for 1 min at 40° C., then ramped at 7.5° C./min to 250° C. and held. All mass spectra were detected at 70 eV in multiple ion scan mode. […]

[4] = SaSSy enzyme assay with FPP, GC-MS product analysis
Description: Enzyme assays for both recombinant isoenzyme proteins P143 and S143 were done in duplicate using GC vials as per O'Maille, P. E., et al. (“A single-vial analytical and quantitative gas chromatography-mass spectrometry assay for terpene synthases,” Anal. Biochem. 335:210-217 (2004)). For each assay, 20 μL of protein (8 mg/mL) was added to 450 μL of reaction buffer containing 25 mM HEPES, 10% glycerol, 5 mM DTT and 10 mM of Mg^2+. 20 μL of substrates FPP and GPP (˜1 mg/mL) were added and the mixture gently shaken. Final enzyme concentration was 0.3 mg/mL. Vials were overlaid with 500 μL of pentane to trap volatile products and incubated at 30° C. for 2 h.
The product mixture of the SaSSy enzyme was analysed on an Agilent 6890 GC with a 5973 MSD using helium as carrier gas. Peak identification was done using an HP5-MS capillary column (30 m, 0.25 mm ID, […]). Injector temperature was 240° C., detector temperature was set at 250° C., injection volume was 1 μL and column flow rate was 1 mL/min. Oven temperature program was as follows: oven program was held for 1 min at 40° C., then ramped at 7.5° C./min to 250° C. and held. All mass spectra were detected at 70 eV in multiple ion scan mode.
The identities of products from SaSSy incubations were confirmed by comparison of mass spectra retention times to authentic sandalwood oil in the NIST 2005 library, see publications by Adams, R. P. (“Identification of essential oil components by gas chromatography/mass spectrometry,” Allured Publishing Corporation, Carol Stream, Ill. (1995)) and MassFinder (www.massfinder.com).
The mass spectrum of the four compounds produced by the SaSSy enzyme (shown in FIG. 2A) are the same as those of natural β-santalene produced in sandalwood trees (see Adams (1995), cited above, for comparison profiles).

[5] = Steady-state enzyme kinetic assays
Description: For determination of steady-state enzyme kinetic constants, conditions were as described previously except the enzyme concentration was kept at 10 nM. Substrate concentrations ranged from 1 uM to 100 uM, and reactions were incubated at 30° C. for exactly 5 mins. Reactions were quenched by the addition of 500 μL 0.5 M EDTA, pH 8.0 and vortexed as above.
as §1

B1: SaSSy: santalene synthase (terpene synthase) from Santalum album, gene SEQ ID NO:1, protein SEQ ID NO:2 (protein, listed as Santalum album)
chain: MDSSTATAMTAPFIDPTDHVNLKTDTDASENRRMGNYKPSIWNYDFLQSLATHHNIVEERHLKLAEKLKGQVKFMFGAPMEPLAKLELVDVVQRLGLNHLFETEIKEALFSIYKDGSNGWWFGHLHATSLRFRLLRQCGLFIPQDVFKTFQNKTGEFDMKLCDNVKGLLSLYEASYLGWKGENILDEAKAFTTKCLKSAWENISEKWLAKRVKHALALPLHWRVPRIEARWFIEAYEQEANMNPTLLKLAKLDFNMVQSIHQKEIGELARWWVTTGLDKLAFARNNLLQSYMWSCAIASDPKFKLARETIVEIGSVLTVVDDGYDVYGSIDELDLYTSSVERWSCVEIDKLPNTLKLIFMSMFNKTNEVGLRVQHERGYNSIPTFIKAWVEQCKSYQKEARWFHGGHTPPLEEYSLNGLVSIGFPLLLITGYVAIAENEAALDKVHPLPDLLHYSSLLSRLINDIGTSPDEMARGDNLKSIHCYMNETGASEEVAREHIKGVIEENWKILNQCCFDQSQFQEPFITFNLNSVRGSHFFYEFGDGFGVTDSWTKVDMKSVLIDPIPLGEE
modifications: SaSSy Protein
With B1 the “Relative % composition in oil produced by enzyme: epi-β-santalol” value [1] was 4.7%, the “Relative % composition in oil produced by enzyme: α-santalol” value [1] was 45.3% and the “E-β-farnesene among reaction products (GC-FID)” value ([2]; FPP Mg, mean) was 1.7. The “Z-β-farnesene among reaction products (GC-FID)” value ([2]; FPP Mg, mean) was 0.8, the “epi-β-santalene among reaction products (GC-FID)” value ([2]; FPP Mg, mean) was 4.7 and the “α-E-bergamotene among reaction products (GC-FID)” value ([2]; FPP Mg, mean) was 16.0. For the same molecule, the “α-santalene among reaction products (GC-FID)” value ([2]; FPP Mg, mean) was 45.3, the “β-santalene among reaction products (GC-FID)” value ([2]; FPP Mg, mean) was 31.5 and the “E-β-farnesene among reaction products (GC-FID)” value ([2]; FPP Mg, replicate 1) was 1.7. The “Z-β-farnesene among reaction products (GC-FID)” value ([2]; FPP Mg, replicate 1) was 0.7, the “epi-β-santalene among reaction products (GC-FID)” value ([2]; FPP Mg, replicate 1) was 4.6 and the “α-E-bergamotene among reaction products (GC-FID)” value ([2]; FPP Mg, replicate 1) was 16.3. The “α-santalene among reaction products (GC-FID)” value ([2]; FPP Mg, replicate 1) was 46.4, the “β-santalene among reaction products (GC-FID)” value ([2]; FPP Mg, replicate 1) was 30.4 and the “E-β-farnesene among reaction products (GC-FID)” value ([2]; FPP Mg, replicate 2) was 1.7. For the same molecule, the “Z-β-farnesene among reaction products (GC-FID)” value ([2]; FPP Mg, replicate 2) was 1.0, the “epi-β-santalene among reaction products (GC-FID)” value ([2]; FPP Mg, replicate 2) was 5.1 and the “α-E-bergamotene among reaction products (GC-FID)” value ([2]; FPP Mg, replicate 2) was 15.3. For the same molecule, the “α-santalene among reaction products (GC-FID)” value ([2]; FPP Mg, replicate 2) was 43.8, the “β-santalene among reaction products (GC-FID)” value ([2]; FPP Mg, replicate 2) was 33.1 and the “E-β-farnesene among reaction products (GC-FID)” value ([2]; FPP Mg, replicate 3) was 1.7. For the same molecule, the “Z-β-farnesene among reaction products (GC-FID)” value ([2]; FPP Mg, replicate 3) was 0.7, the “epi-β-santalene among reaction products (GC-FID)” value ([2]; FPP Mg, replicate 3) was 4.3 and the “α-E-bergamotene among reaction products (GC-FID)” value ([2]; FPP Mg, replicate 3) was 16.4. For the same molecule, the “α-santalene among reaction products (GC-FID)” value ([2]; FPP Mg, replicate 3) was 45.6, the “β-santalene among reaction products (GC-FID)” value ([2]; FPP Mg, replicate 3) was 31.2 and the “E-β-farnesene among reaction products (GC-FID)” value ([2]; FPP Mn, mean) was 7.6. For the same molecule, the “Z-β-farnesene among reaction products (GC-FID)” value ([2]; FPP Mn, mean) was 0.5, the “epi-β-santalene among reaction products (GC-FID)” value ([2]; FPP Mn, mean) was 0.7 and the “α-E-bergamotene among reaction products (GC-FID)” value ([2]; FPP Mn, mean) was 74.7. The “α-santalene among reaction products (GC-FID)” value ([2]; FPP Mn, mean) was 9.8, the “β-santalene among reaction products (GC-FID)” value ([2]; FPP Mn, mean) was 6.6 and the “E-β-farnesene among reaction products (GC-FID)” value ([2]; FPP Mn, replicate 1) was 7.4. For the same molecule, the “Z-β-farnesene among reaction products (GC-FID)” value ([2]; FPP Mn, replicate 1) was 0.6, the “epi-β-santalene among reaction products (GC-FID)” value ([2]; FPP Mn, replicate 1) was 0.9 and the “α-E-bergamotene among reaction products (GC-FID)” value ([2]; FPP Mn, replicate 1) was 75.7. The “α-santalene among reaction products (GC-FID)” value ([2]; FPP Mn, replicate 1) was 9.5, the “β-santalene among reaction products (GC-FID)” value ([2]; FPP Mn, replicate 1) was 6.0 and the “E-β-farnesene among reaction products (GC-FID)” value ([2]; FPP Mn, replicate 2) was 8.0. The “Z-β-farnesene among reaction products (GC-FID)” value ([2]; FPP Mn, replicate 2) was 0.5, the “epi-β-santalene among reaction products (GC-FID)” value ([2]; FPP Mn, replicate 2) was 0.8 and the “α-E-bergamotene among reaction products (GC-FID)” value ([2]; FPP Mn, replicate 2) was 73.4. The “α-santalene among reaction products (GC-FID)” value ([2]; FPP Mn, replicate 2) was 9.9, the “β-santalene among reaction products (GC-FID)” value ([2]; FPP Mn, replicate 2) was 7.3 and the “E-β-farnesene among reaction products (GC-FID)” value ([2]; FPP Mn, replicate 3) was 7.5. For the same molecule, the “Z-β-farnesene among reaction products (GC-FID)” value ([2]; FPP Mn, replicate 3) was 0.5, the “epi-β-santalene among reaction products (GC-FID)” value ([2]; FPP Mn, replicate 3) was 0.5 and the “α-E-bergamotene among reaction products (GC-FID)” value ([2]; FPP Mn, replicate 3) was 74.9. The “α-santalene among reaction products (GC-FID)” value ([2]; FPP Mn, replicate 3) was 10.1, the “β-santalene among reaction products (GC-FID)” value ([2]; FPP Mn, replicate 3) was 6.4 and the “Relative % composition in oil produced by enzyme: E-α-bergamotol” value ([2]; GC-FID) was 16.0%. For the same molecule, the “Relative % composition in oil produced by enzyme: β-santalol” value ([2]; GC-FID) was 31.5%, the products formed [3] was “a mixture of α-pinene, camphene, limonene and α-terpinolene, along with other monoterpene products” and the “epi-β-santalene in product mixture” value ([4]; FPP, Mg^2+ buffer) was 4.3%. For the same molecule, the “α-santalene in product mixture” value ([4]; FPP, Mg^2+ buffer) was 34.7%, the “α-trans-bergamotene in product mixture” value ([4]; FPP, Mg^2+ buffer) was 11.1% and the “β-santalene in product mixture” value ([4]; FPP, Mg^2+ buffer) was 41.3%. For the same molecule, the “Relative % composition in oil produced by enzyme: E-α-bergamotol” value ([4]; four major components only) was 12.1%, the “Relative % composition in oil produced by enzyme: epi-β-santalol” value ([4]; four major components only) was 4.7% and the “Relative % composition in oil produced by enzyme: α-santalol” value ([4]; four major components only) was 38.0%. The “Relative % composition in oil produced by enzyme: β-santalol” value ([4]; four major components only) was 45.2%, the Kcat ([5]; FPP) was 0.0112 s⁻¹ and the Vmax ([5]; assays using FPP) was 0.42 µM/min.
